Measurements as given in article PMC3418312.

Target: GST fused to the OCA2 N-terminal cytoplasmic domain, AA23 variant harboring the P99S mutation (human) (UniProt Q04671)
Assay: pull-down

Sequence of UniProt Q04671 (Q04671 1-173 P99S): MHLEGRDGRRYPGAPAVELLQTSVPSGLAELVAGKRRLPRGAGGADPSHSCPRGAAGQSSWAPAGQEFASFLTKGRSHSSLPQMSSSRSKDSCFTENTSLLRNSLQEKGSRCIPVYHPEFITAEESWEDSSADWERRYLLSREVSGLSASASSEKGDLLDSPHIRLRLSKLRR

percent bound relative to AA23 (% relative to AA23): 30.1
Substance: AP-3 complex from MNT-1 human melanoma cell lysate (from UniProt O14617 1-1153; O00203 1-1094; Q92572 1-193)
